The source of these data is publication PMC4769027.

Broadly, the Kd is a measure of binding affinity in units of concentration.

Assay [1] concerns the target SDALIE Fc (S239D/A330L/I332E IgG1 Fc) (human). The assay can be described thus: SPR. Background: SPR reads the build-up and loss of mass on a sensor chip optically.
Assay [2] has as its target GASDALIE Fc (G236A/S239D/A330L/I332E IgG1 Fc), expressed as an Fc fragment (human). The assay can be described thus: SPR.
Assay [3] addresses FcγRIIa H131 variant ectodomain (human) (UniProt P12318). The assay can be described thus: SPR.
The target of assay [4] is FcγRIIb ectodomain (human) (UniProt P31994). Nature of the assay: SPR.
The target in assay [5] is FcγRIIIa F158 variant ectodomain (as used in SPR) (human) (UniProt P08637). The assay can be described thus: SPR.
The target of assay [6] is FcγRIIIa V158 (Homo sapiens) (UniProt P08637). Nature of the assay: SPR. To be noted: cited from earlier work.
The target of assay [7] is FcγRIIa H131 (Homo sapiens) (UniProt P12318). The assay can be described thus: SPR. To be noted: cited from earlier work.
For assay [8], the target named is FcγRIIa R131 (Homo sapiens) (UniProt P12318). Nature of the assay: SPR. To be noted: cited from earlier work.
The target of a further assay is FcγRIIb (Homo sapiens) (UniProt P31994). The assay can be described thus: SPR. To be noted: cited from earlier work.
Assay [9] has as its target FcγRIIIa F158 (Homo sapiens) (UniProt P08637). The assay can be described thus: SPR. To be noted: cited from earlier work.
In assay [10] the target is FcγRIIIa F158 ECD (Homo sapiens) (UniProt P08637). The assay can be described thus: SPR. To be noted: cited from earlier work.
Assay [11] deals with FcγRIIIa V158 ECD (Homo sapiens) (UniProt P08637). The assay can be described thus: SPR. To be noted: cited from earlier work.
For assay [12], the target named is FcγRIIa H131 ECD (Homo sapiens) (UniProt P12318). The assay can be described thus: SPR. To be noted: cited from earlier work.
In assay [13] the target is FcγRIIa R131 ECD (Homo sapiens) (UniProt P12318). The assay can be described thus: SPR. To be noted: cited from earlier work.
In assay [14] the target is FcγRIIb ECD (Homo sapiens) (UniProt P31994). Nature of the assay: SPR. To be noted: cited from earlier work.
For assay [15], the target named is FcγRIIIa V158 ECD (Homo sapiens) (UniProt P08637). Nature of the assay: Competition. To be noted: cited from earlier work.

Turning to “FcγRIIIa F158 variant ectodomain (as used in SPR) (from UniProt P08637 17-218) (receptor)”, the fold improved affinity compared with wtFc in assay [1] amounted to 318 fold; in assay [2], 431 fold.

With “FcγRIIa H131 variant ectodomain (from UniProt P12318 34-211) (receptor)”, the fold improved affinity compared with wtFc in assay [1] turned out to be 2 fold. In assay [2], the fold improved affinity compared with wtFc came out at 17 fold and the fold tighter binding than SDALIE Fc amounted to 7 fold.

“FcγRIIb ectodomain (from UniProt P31994 43-217) (receptor)” came in with a fold improved affinity compared with wtFc in assay [2] of 6 fold.

Turning to “GASDALIE Fc (G236A/S239D/A330L/I332E IgG1 Fc), expressed as an Fc fragment (domain or fragment)”, the Kd in [3] came to 1580 nM; in [4], 3.88 µM; in [5], 213 nM.

IgG1 Fc Fc (from UniProt P01857): the Kd in assay [6] was 432 nM; in assay [7], 1380 nM; in assay [8], 1550 nM; with FcγRIIb (Homo sapiens), 2520 nM; in assay [9] it was 2950 nM.

On to “SDALIE Fc (S239D/A330L/I332E IgG1 Fc) (domain or fragment)”, for which the Kd came out at 1490 nM in assay [3], 2.19 µM in assay [4] and 201 nM in assay [5].

Consider “wild-type IgG1 Fc (from UniProt P01857 108-328) (domain or fragment)”, for which the Kd in assay [5] was 4450 nM.

On to wtFc (IgG1) Fc (from UniProt P01857), for which the Kd was 2950 nM in [10]; 432 nM in assay [11]; 1380 nM in assay [12]; 1550 nM in assay [13]; 2520 nM in assay [14]; 252 nM in [15].
